Experimental data: PMC2893186 (BMC Structural Biology, 2010)

Molecular target: the molecule itself
Assay: crystal structure; crystals grown from purified His-tagged ZHX2 HD2-3 (OPPF_2273), 20% PEG6000, 0.2 M LiCl, HEPES pH7; protein cleaved in the droplet, two molecules of HD2 in the asymmetric unit; 2.70 Å, data at 100 K

B1: ZHX2 HD2 (homeodomain 2 of human zinc-fingers and homeoboxes 2), proteolytic fragment derived from OPPF_2273 (ZHX2 HD2-3) (domain or fragment)
chain: RKKTKEQIAHLKASFLQSQFPDDAEVYRLIEVTGLARSEIKKWFSDHRYRCQRGIVHI
notes: ZHX2 (zinc-fingers and homeoboxes 2), human; homeodomain 2; Expressed as construct OPPF_2273 (HD2-3, aa 444-582); HD2-HD3 was cleaved by proteolysis after purification and only HD2 crystallized; Cys494 lies in the fragment; Homodimer in the crystal, with helix I domain-swapped and a disulfide bridge between the Cys494 of the two subunits; the deposited entry would show the ordered residues; also …
B1 was tested, and the “stoichiometry N” value was 2.
